Measured values: patent publication US20190359986A1 (ROCHE INNOVATION CENTER COPENHAGEN A S, published 2019)

Molecular target: TNF-α
Assay: cell-based or functional assay

B1: human TNFR2 Δ7 without His-tag, from clone 1230-1 transfected HeLa cells (receptor)
chain: LPAQVAFTPYAPEPGSTCRLREYYDQTAQMCCSKCSPGQHAKVFCTKTSDTVCDSCEDSTYTQLWNWVPECLSCGSRCSSDQVETQACTREQNRICTCRPGWYCALSKQEGCRLCAPLRKCRPGFGVARPGTETSDVVCKPCAPGTFSNTTSSTDICRPHQICNVVAIPGNASMDAVCTSTSPTRSMAPGAVHLPQPVSTRSQHTQPTPEPSTAPSTSFLLPMGPSPPAEGSTGDFALPVEKPLCLQREAKVPHLPADKARGTQGPEQQHLLITAPSSSSSSLESSASALDRRAPTRNQPQAPGVEASGAGEARASTGSSDSSPGGHGTQVNVTCIVNVCSSSDHSSQCSSQASSTMGDTDSSPSESPKDEQVPFSKEECAFRSQLETPETLLGSTEEKPLPLGVPDAGMKPS
- EC50, L929 cytotoxicity assay; extracellular media from 1230-1 transfected HeLa cells: 1.4 ng/mL

B2: human TNFR2 Δ7 with glutamine 352 changed to arginine, from clone 1138-5 transfected HeLa cells (receptor)
chain: LPAQVAFTPYAPEPGSTCRLREYYDQTAQMCCSKCSPGQHAKVFCTKTSDTVCDSCEDSTYTQLWNWVPECLSCGSRCSSDQVETQACTREQNRICTCRPGWYCALSKQEGCRLCAPLRKCRPGFGVARPGTETSDVVCKPCAPGTFSNTTSSTDICRPHQICNVVAIPGNASMDAVCTSTSPTRSMAPGAVHLPQPVSTRSQHTQPTPEPSTAPSTSFLLPMGPSPPAEGSTGDFALPVEKPLCLQREAKVPHLPADKARGTQGPEQQHLLITAPSSSSSSLESSASALDRRAPTRNQPQAPGVEASGAGEARASTGSSDSSPGGHGTRVNVTCIVNVCSSSDHSSQCSSQASSTMGDTDSSPSESPKDEQVPFSKEECAFRSQLETPETLLGSTEEKPLPLGVPDAGMKPS
- EC50, L929 cytotoxicity assay; extracellular media from 1138-5 transfected HeLa cells: 1.8 ng/mL

B3: human TNFR2 Δ7 with His-tag, from clone 1319-1 transfected HeLa cells (receptor)
chain: LPAQVAFTPYAPEPGSTCRLREYYDQTAQMCCSKCSPGQHAKVFCTKTSDTVCDSCEDSTYTQLWNWVPECLSCGSRCSSDQVETQACTREQNRICTCRPGWYCALSKQEGCRLCAPLRKCRPGFGVARPGTETSDVVCKPCAPGTFSNTTSSTDICRPHQICNVVAIPGNASMDAVCTSTSPTRSMAPGAVHLPQPVSTRSQHTQPTPEPSTAPSTSFLLPMGPSPPAEGSTGDFALPVEKPLCLQREAKVPHLPADKARGTQGPEQQHLLITAPSSSSSSLESSASALDRRAPTRNQPQAPGVEASGAGEARASTGSSDSSPGGHGTQVNVTCIVNVCSSSDHSSQCSSQASSTMGDTDSSPSESPKDEQVPFSKEECAFRSQLETPETLLGSTEEKPLPLGVPDAGMKPSKGQDNSADIQHSGGRSSLEGPRFEGKPIPNPLLGLDSTRTGHHHHHH
modifications: variably glycosylated
- EC50, L929 cytotoxicity assay; extracellular media from 1319-1 transfected HeLa cells: 1.7 ng/mL

B4: mouse TNFR2 Δ7 (SSO-induced, in serum of SSO 3274 or SSO 3305 treated mice) (receptor)
chain: VPAQVVLTPYKPEPGYECQISQEYYDRKAQMCCAKCPPGQYVKHFCNKTSDTVCADCEASMYTQVWNQFRTCLSCSSSCTTDQVEIRACTKQQNRVCACEAGRYCALKTHSGSCRQCMRLSKCGPGFGVASSRAPNGNVLCKACAPGTFSDTTSSTDVCRPHRICSILAIPGNASTDAVCAPESPTLSAIPRTLYVSQPEPTRSQPLDQEPGPSQTPSILTSLGSTPIIEQSTKGGISLPIEKPSCLQRDAKVPHVPDEKSQDAVGLEQQHLLTTAPSSSSSSLESSASAGDRRAPPGGHPQARVMAEAQGFQEARASSRISDSSHGSHGTHVNVTCIVNVCSSSDHSSQCSSQASATVGDPDAKPSASPKDEQVPFSQEECPSQSPCETTETLQSHEKPLPLGVPDMGMKPSQAGWFDQIAVKVA
- EC50, L929 cytotoxicity assay; SSO 3274 treated mice serum: 0.8 ng/mL
- EC50, L929 cytotoxicity assay; SSO 3305 treated mice serum: 0.6 ng/mL
